Residue numbers refer to the chain shown, from its start.
Assays:
[1] = biological target: T1, CRTH2R (UniProt Q9Y5Y4 1-395, limits assumed); test: cell-based or functional assay
T1 sequence (looked up): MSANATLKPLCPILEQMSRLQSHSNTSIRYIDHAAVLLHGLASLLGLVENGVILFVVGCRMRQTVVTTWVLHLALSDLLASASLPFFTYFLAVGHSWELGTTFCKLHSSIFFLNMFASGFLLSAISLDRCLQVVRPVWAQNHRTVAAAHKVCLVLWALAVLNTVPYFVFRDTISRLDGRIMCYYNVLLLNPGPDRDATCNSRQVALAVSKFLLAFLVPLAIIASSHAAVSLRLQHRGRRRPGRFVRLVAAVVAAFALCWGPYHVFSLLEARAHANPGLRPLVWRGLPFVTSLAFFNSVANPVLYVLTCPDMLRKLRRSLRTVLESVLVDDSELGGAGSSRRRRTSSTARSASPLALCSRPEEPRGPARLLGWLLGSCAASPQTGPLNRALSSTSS

[2] = biological target: T1, CRTH2R; test: flow cytometry (MFI), CHO CRTH2R-positive cells against parental CHO cells, 3-fold titration from 100 nM; grey = CRTH2R cells, black = parental cells (no legend on the panel)
Description: Cell binding of anti-CRTH2R antibodies was determined by testing on CHO CRTH2R-positive cells (GFP+) and parental CHO cells (GFP−), comparing parental negative and target positive cells to rule out false-positives. Antibodies as listed in Table 14A were titrated starting at 100 nM (15 ug/mL) with 3-fold titrations, for a total of 8 points. Two antibodies (gPCR-51 and gPCR-52) were used as a positive control.

[3] = biological target: T2, human TIGIT (human, UniProt Q495A1 22-141, limits assumed); test: monovalent affinity of the hTIGIT IgGs; method not named in Example 14
T2 construct: also called hTIGIT
T2 sequence (looked up): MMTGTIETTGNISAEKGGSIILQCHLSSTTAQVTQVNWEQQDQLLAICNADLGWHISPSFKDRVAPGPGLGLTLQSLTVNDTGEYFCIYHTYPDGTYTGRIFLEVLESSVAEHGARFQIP

B1: CRTH2-70 (antibody, V domains shown)
VH: QVQLVQSGAEVKKPGSSVKVSCKASGGTFSNHAIIWVRQAPGQGLEWMGGIIPIFGTPSYAQKFQGRVTITADESTSTAYMELSSLRSEDTAVYYCARDMYYDFDVISAGVVGAGNPEVVPADDAFDIWGQGTLVTVSS
VL: QSVLTQPPSVSAAPGQKVTISCSGSTSNIGNNFVSWYQQLPGTAPKLLIYDNEKRPSGIPDRFSGSKSGTSATLGITGLQTGDEADYYCGTWDERQTDESYVFGGGTKLTVL
How did the “antagonist activity in PGD2-induced cAMP assay at 33 nM IgG” value (“antagonist activity” for short) [1] turn out when B1 was run?
The value was over 20%.

B2: CRTH2-74 (antibody)
VH: QVQLVESGGGVVQPGRSLRLSCAASGFSFSEYGIHWVRQAPGKGLEWVAVISYEGSNEYYADSVKGRFTISRDNSKNTLYLQMNSLRAEDTAVYYCARANQHFGPVAGGATPSEEPGSQLTRAELGWDAPPGQESLADELLQLGTEHGYHYYGMDVWGQGTLVTVSS
VL: QSVLTQPPSVSAAPGQKVTISCSGSTSNIGKNYVSWYQQLPGTAPKLLIYDDDERPSGIPDRFSGSMSGTSATLGITGLQTGDEADYYCEAWDADLSGAVFGGGTKLTVL
notes: CRTH2R IgG
For B2, which “antagonist activity” value [1] is on record?
Its value is over 20%.

And the EC50 [2]?
The EC50 was 8.61 nM.

B3: CRTH2-28 (antibody, V domains shown)
VH: QVQLVQSGAEVKKPGSSVNVSCKASGGTFSDYAFSWVRQAPGQGLEWMGAIIPFFGTVNYAQKFQGRVTITADESTSTAYMELSSLRSEDTAVYYCARDMYYDFATGTGGPEDDLYPQGELNDGYRIEVVPADDAFDIWGQGTLVTVSS
VL: B2 VL with T26I, D53H, E54K, M67K, E90A, A91T, A94R, D95G, G98A
B3 was tested. Which “antagonist activity” value [1] did it give?
Its value is over 20%.

B4: CRTH2-45 (antibody)
VH: QVQLVESGGGVVQPGRSLRLSCAASGFTFSHYAMHWVRQAPGKGLEWVADISHEGSNKYYADSVKGRFTISRDNSKNTLYLQMNSLRAEDTAVYYCARDGRGSLPRPKGGPTSGGGFSTNIGYGFVVQSYDSSEDSGGAFDIWGQGTLVTVSS
VL: QSVLTQPPSVSAAPGQKVTISCSGTSSNIENNYVSWYQQLPGTAPKLLIYDNVKRPSGIPDRFSGSKSGTSATLGITGLQTGDEADYYCGTWDNTVSAPWVFGGGTKLTVL
notes: CRTH2R IgG
With B4 as the binder, how does the “antagonist activity” value [1] read?
The value was over 20%.

What about the EC50 [2] of the same binder?
The EC50 was 23.2 nM.

B5: CRTH2-60 (antibody, V domains shown)
VH: QVQLVQSGAEVKKPGSSVKVSCKASGGTFKNYAINWVRQAPGQGLEWMGAIIPKFGAANYAQKFQGRVTITADESTSTAYMELSSLRSEDTAVYYCARANQHFSAVRGLAFGYGYRIGGYHYYGMDVWGQGTLVTVSS
VL: QSVLTQPPSVSAAPGQKVTISCSGSTSNIGINYVSWYQQLPGTAPKLLIYENRKRPSGIPDRFSGSKSGTSATLGITGLQTGDEADYYCATWDASLKNLVFGGGTKLTVL
For B5, which “antagonist activity” value [1] is on record?
The value was over 20%.

B6: CRTH2-8 (antibody, V domains shown)
VH: QVQLVQSGAEVKKPGSSVKVSCKASGGTFTDYAISWVRQAPGQGLEWMGGIIPFFGSPNYAQKFQGRVTITADESTSTAYMELSSLRSEDTAVYYCARDMYYDFAAGLEGTITEVFDEEGHQGGTEVVPADDAFDIWGQGTLVTVSS
VL: B5 VL with T26S, I31K, E51D, R53N, K54Q, A90G, A94T, K97T, N98S, L99V
notes: CRTH2R IgG
Which results are given for B6?
antagonist activity in PGD2-induced cAMP assay at 33 nM IgG [1]: > 20%; EC50 [2]: 135 nM

B7: TIGIT-55-05 (antibody, V domains shown)
VH: EVQLLESGGGLVQPGGSLRLSCAASGFVFSSYAMNWVRQAPGKGLEWVSTVSGSGGTTYYADSVKGRFTISRDNSKNTLYLQMNSLRAEDTAVYYCARAPYSSSSWFDYWGQGTLVTVSS
VL: DIQMTQSPSSLSASVGDRVTITCRASQSVRSYLNWYQQKPGKAPKLLIYTATSLESGVPSRFSGSGSGTDFTLTISSLQPEDFATYYCQQSYGLPRTFGGGTKVEIK
notes: hTIGIT IgG
B7 was tested. Which Kd [3] did it give?
Its Kd is 97.6 nM.

B8: CRTH2 66 (antibody)
heavy chain (variable domain given): QVQLVESGGGVVQPGRSLRLSCAASGFDFSGYGMHWVRQAPGKGLEWVAVISYEGSNKFYADSVKGRFTISRDNSKNTLYLQMNSLRAEDTAVYYCARDLRELECEEWTIEVHGQEFAVHQDRGGVFSRGPCVDPRGVAGSFDVWGQGTLVTVSS
light chain (variable domain given): EIVMTQSPATLSVSPGERATLSCRASQGVGSNLAWYQQKPGQAPRLLIYRTSIRATGIPARFSGSGSGTEFTLTISSLQSEDFAVYYCQQYYSWPPLTFGGGTKVEIK
With B8 as the binder, how does the EC50 [2] read?
The EC50 was 3.95 nM.

B9: CRTH2-42 (antibody)
VH: QVQLVESGGGVVQPGRSLRLSCAASGFAFSSYAMHWVRQAPGKGLEWVAVISYEGSNEYYADSVKGRFTISRDNSKNTLYLQMNSLRAEDTAVYYCARDLRELECEEWTVLQYGKFHMRWAESGEGSLSRGPCVDPRGVAGSFDVWGQGTLVTVSS
VL: QSALTQPASVSGSPGQSITISCTGTSSDVGGYRYVSWYQQHPGKAPKLMIYNVNYRPSGVSNRFSGSKSGNTASLTISGLQAEDEADYYCSSYRSSSTLGVFGGGTKLTVL
What does the source list for B9?
IC50 fold difference of the PGD2 dose response (cAMP) with 100 nM IgG [1]: > 2 fold; antagonist activity in PGD2-induced cAMP assay at 33 nM IgG [1]: > 20%

B10: CRTH2 35 (antibody, V domains shown)
VH: QVQLVQSGAEVKKPGSSVKVSCKASGGTFRSYAISWVRQAPGQGLEWMGGIIPISGTTNYAQKFQGRVTITADESTSTAYMELSSLRSEDTAVYYCARANQHFTRIFGNYQIYFGHFGYHYYGMDVWGQGTLVTVSS
VL: B9 VL with V29I, R33E, Y34F, N52G, N54S, Y55R, S91G, R94T, L99P, G100Y
For B10, which EC50 [2] is on record?
The EC50 was 12.6 nM.

B11: CRTH2-15 (antibody, V domains shown)
VH: QVQLVQSGAEVKKPGSSVKVSCKASGGTFSTYAIDWVRQAPGQGLEWMGGIIPLFGSPNYAQKFQGRVTITADESTSTAYMELSSLRSEDTAVYYCARANQHFFLYEGTSSSWLHVGHARYGYHYYGMDVWGQGTLVTVSS
VL: QSVLTQPPSVSAAPGQKVTISCSGSGSNIGSNYVSWYQQLPGTAPKLLIYDNIRRPSGIPDRFSGSKSGTSATLGITGLQTGDEADYYCAAWDTRLSAGVFGGGTKLTVL
notes: CRTH2R IgG
With B11 as the binder, how does the “antagonist activity” value [1] read?
The value was over 20%.

And the EC50 [2]?
The EC50 was 73.8 nM.

B12: CRTH2 57 (antibody, V domains shown)
VH: QVQLVQSGAEVKKPGSSVKVSCKASGGTFSSYAMSWVRQAPGQGLEWMGGIIPLFGTTDYAQKFQGRVTITADESTSTAYMELSSLRSEDTAVYYCARANQHFVKIQGAPVSTPVPGFGTTGYHYYGMDVWGQGTLVTVSS
VL: B11 VL with G26S, G30E, S31D, I53F, R54K, A90G, A91T, R95S, G99A, V100L
With B12 as the binder, how does the EC50 [2] read?
The EC50 was 158 nM.

B13: CRTH2-19 (antibody, V domains shown)
VH: QVQLVQSGAEVKKPGSSVKVSCKASGGTFSSHAINWVRQAPGQGLEWMGRIIPIVGTTTYAQKFQGRVTITADESTSTAYMELSSLRSEDTAVYYCARDMYYDFDYFGLTLTGDRNDDEVVPADDAFDIWGQGTLVTVSS
VL: QSALTQPASVSGSPGQSITISCTGTSSDVGGYDYVTWYQQHPGKAPKLMIYDVDTRPSGVSNRFSGSKSGNTASLTISGLQAEDEADYYCSSYTTSTSYVFGGGTKLTVL
notes: CRTH2R IgG
B13 was tested. Which “antagonist activity” value [1] did it give?
Its value is over 20%.

And the EC50 [2]?
Its EC50 is 16.7 nM.

B14: CRTH2-24 (antibody, V domains shown)
VH: QVQLVQSGAEVKKPGSSVKVSCKASGGSFSNYGISWVRQAPGQGLEWMGGIIPLIGTANYAQKFQGRVTITADESTSTAYMELSSLRSEDTAVYYCARDMYYDFTLGPQSIGPLGEVVPADDAFDIWGQGTLVTVSS
VL: QSVLTQPPSVSAAPGQKVTISCSGSSSNIGNNFVSWYQQLPGTAPKLLIYDNIQRPSGIPDRFSGSKSGTSATLGITGLQTGDEADYYCGTWDTSLSAVVFGGGTKLTVLR
How did the “antagonist activity” value [1] turn out when B14 was run?
Its value is over 20%.

B15: TIGIT-55-01 (antibody, V domains shown)
VH: EVQLLESGGGLVQPGGSLRLSCAASGFTFGSYGMSWVRQAPGKGLEWVSSISGSGSTTYYADSVKGRFTISRDNSKNTLYLQMNSLRAEDTAVYYCARVAGSSGWAFDYWGQGTLVTVSS
VL: DIQMTQSPSSLSASVGDRVTITCRASQAISNYLNWYQQKPGKAPKLLIYAASRLQSGVPSRFSGSGSGTDFTLTISSLQPEDFATYYCQESYSTPFTFGGGTKVEIK
notes: hTIGIT IgG
How did the Kd [3] turn out when B15 was run?
Its Kd is 15.9 nM.

B16: TIGIT-55-02 (antibody, V domains shown)
VH: EVQLLESGGGLVQPGGSLRLSCAASGLTFSNYAMTWVRQAPGKGLEWVSGISRSGGSTYYADSVKGRFTISRDNSKNTLYLQMNSLRAEDTAVYYCATLRLYSSGGGIDYWGQGTLVTVSS
VL: B15 VL with A28Y, N31T, R53S, S56G, E90Q, S91N, S93I, F96L
notes: hTIGIT IgG
How did the Kd [3] turn out when B16 was run?
The Kd was 141 nM.

B17: CRTH2 39 (antibody, V domains shown)
VH: QVQLVQSGAEVKKPGSSVKVSCKASVDTFSRYSISWVRQAPGQGLEWMGGIIPVFDTTNYAQKFQGRVTITADESTSTAYMELSSLRSEDTAVYYCARDMYYDFGVILGGTAVGTNNGSANEVVPADDAFDIWGQGTLVTVSS
VL: QSVLTQPPSVSAAPGQKVTISCSGSSSNIGDNDVSWYQQLPGTAPKLLIYDDDKRPSGIPDRFSGSKSGTSATLGITGLQTGDEADYYCASWDTSLSGGYVFGGGTKLTVL
For B17, which EC50 [2] is on record?
The EC50 was 19 nM.

From patent US20210102195A1 (TWIST BIOSCIENCE, published 2021)
